# Measurements as given in PMC4416226 (The FEBS journal, 2014).
# T1: His-MyoD (1-320 aa) (UniProt P15172 1-320)
# T1 sequence (looked up): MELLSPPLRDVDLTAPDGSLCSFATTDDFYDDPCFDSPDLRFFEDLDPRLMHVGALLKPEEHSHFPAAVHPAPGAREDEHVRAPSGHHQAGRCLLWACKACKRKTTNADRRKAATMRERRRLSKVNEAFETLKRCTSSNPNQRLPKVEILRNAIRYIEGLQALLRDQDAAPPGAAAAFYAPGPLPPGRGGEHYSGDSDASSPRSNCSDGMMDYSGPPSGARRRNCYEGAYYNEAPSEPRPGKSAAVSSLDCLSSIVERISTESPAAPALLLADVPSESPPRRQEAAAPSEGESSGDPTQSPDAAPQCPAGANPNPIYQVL
# Molecular target: T1, His-MyoD (1-320 aa)
# Test: far-Western, overlay or dot blot
binder,measurement,value
"GST-MLP-a (1-194 aa) (natural protein, human, UniProt P50461-1 1-194, looked up) MPNWGGGAKCGACEKTVYHAEEIQCNGRSFHKTCFHCMACRKALDSTTVAAHESEIYCKVCYGRRYGPKGIGYGQGAGCLSTDTGEHLGLQFQQSPKPARSVTTSNPSKFTAKFGESEKCPRCGKSVYAAEKVMGGGKPWHKTCFRCAICGKSLESTNVTDKDGELYCKVCYAKNFGPTGIGFGGLTQQVEKKE",binding result,binds
